Source: US20130035249A1

Legend:
[1] = biological target: full-length human CEA (human) (UniProt P06731); experiment: binding to CHO cells expressing full-length CEA (method of the KD not described)
[2] = biological target: full-length human CEA (human) (UniProt P06731); experiment: binding to CHO cells co-expressing full-length CEA and the CEA splice variant (method of the KD not described)

Kd [1]: 5 nM | Kd [2]: 5.6 nM
Substance: MEDI-565 (bispecific antibody)
